According to CN111777681A (SHANGHAI LIANGYUE BIOMEDICAL TECH CO LTD, dated 2020):

Target: T1, 人Claudin 18.2 (紧密连接蛋白-18.2) (human)
T1 construct: Full-length protein stably expressed on HEK293 or NIH-3T3 cells; also called 紧密连接蛋白18剪接变体2
Assay: flow cytometry on HEK293-Claudin 18.2 stable cells, recombinant antibody titrated from 600 nM in 3-fold steps

T1 sequence (chain, as listed by the source limits assumed): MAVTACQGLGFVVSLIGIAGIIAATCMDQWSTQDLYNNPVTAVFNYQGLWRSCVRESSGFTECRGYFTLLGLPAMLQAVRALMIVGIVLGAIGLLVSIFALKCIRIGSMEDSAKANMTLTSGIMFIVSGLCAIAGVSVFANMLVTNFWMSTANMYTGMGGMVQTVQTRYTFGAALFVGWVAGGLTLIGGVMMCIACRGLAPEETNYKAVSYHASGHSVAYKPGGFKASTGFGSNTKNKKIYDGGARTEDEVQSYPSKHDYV

EC50 [nM]	Binder
1.01	3H2-C5 (antibody, V domains shown, Mouse monoclonal antibody; also called 抗体3H2-C5; 重组抗体3H2-C5) VH: DVQLVESGGGLLQPGGSRKLSCAASGFSFSNFGMHWFRQAPEKGLEWVAFISGGSSPIYYADTVKGRFTISRDNPTNTLFLQMTSLRSEDTAMYYCARFRRGGNAMDYWGQGTSVTVSS VL: DIVMTQSPSSLTVTAREKVTMSCKSSQSLFNSGNQRNYLTWYQQKPGQPPKLLIYWASTRESGVPDRFTGSGSGTDFTLTIRSVQAEDLAVYYCQNSYSYPFTLGSGTKLEIK
1.18	4F6-G11 (antibody, V domains shown, Mouse monoclonal antibody; also called 4F6-Gl1; 重组抗体4F6-G11) VH: DVQLVESGGGLVQPGGSRKLSCGASGFTFSSFGMHWVRQAPEKGLEWVAYISSDSSTKHYADIVKGRFTVSRDNPRNTLFLQMTSLGSEDTAIYYCARLRRGGNALDYWGQGTSVTVSS VL: DIVMTQSPSFLTVTAGEKVTMSCRSSQSLLNSGNQRNYLTWYQHKPGQSPKLLIYWASTRESGVPDRFTGSGSGTTFTLTISSVQPEDLAVFYCQNNYYFPFTFGSGTKLEIR
